This passage reports normalised SPOT signal, Boehringer light units (BLU); mean over the file's lines of this peptide results from PMC314469, “Protein Interaction Networks by Proteome Peptide Scanning” (PLoS Biology, 2004).

What all share (experiment): SPOT array
The target in experiment [1] is T1, Yfr024 SH3 (LSB3_YEAST), P43603.
T1 chain: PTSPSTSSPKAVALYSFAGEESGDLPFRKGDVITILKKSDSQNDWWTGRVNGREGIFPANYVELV

The target in experiment [2] is T2, Yhr016c SH3 (YSC84_YEAST), P32793.
T2 chain: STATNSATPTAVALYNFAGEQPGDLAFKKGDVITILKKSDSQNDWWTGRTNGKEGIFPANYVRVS

For experiment [3], the target named is T3, Rvs167 SH3 (RV167_YEAST), P39743.
T3 chain: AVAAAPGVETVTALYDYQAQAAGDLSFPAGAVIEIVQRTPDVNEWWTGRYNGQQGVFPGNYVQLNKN

The target in experiment [4] is T4, Boi2 SH3 (BOI2_YEAST), P39969.
T4 chain: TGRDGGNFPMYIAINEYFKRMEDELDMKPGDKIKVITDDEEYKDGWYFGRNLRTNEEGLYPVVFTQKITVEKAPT

Experiment [5] deals with T5, Boi1 SH3 (BOI1_YEAST), P38041.
T5 chain: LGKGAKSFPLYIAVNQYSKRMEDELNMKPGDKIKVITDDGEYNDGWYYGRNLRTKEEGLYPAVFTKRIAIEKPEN

Experiment [6] deals with Sho1 SH3 (SHO1_YEAST), P40073.
Sho1 SH3 (SHO1_YEAST), P40073, sequence (P40073 295-366): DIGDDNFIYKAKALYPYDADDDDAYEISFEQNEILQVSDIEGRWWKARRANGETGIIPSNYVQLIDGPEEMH
The target of experiment [7] is T6, Myo5 SH3 (MYO5_YEAST), Q04439.
T6 chain: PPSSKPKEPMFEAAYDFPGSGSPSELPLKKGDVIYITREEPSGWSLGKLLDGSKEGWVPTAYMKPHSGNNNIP

B1: YLL065W 94-107 (peptide)
chain: NIPTKSPPKSPKHK
Turning to B1, the normalised SPOT signal, Boehringer light units (BLU); mean over the file's lines of this peptide in experiment [1] turned out to be 518; in experiment [2], 198; in experiment [3] it was 64.5; in experiment [4], 1.2; in experiment [5], 743; in experiment [6] it was 53. In experiment [7], this molecule registered a normalised SPOT signal, Boehringer light units (BLU); mean over the file's lines of this peptide of 12500.

B2: YCR032W 1499-1512 (peptide)
chain: NKIPKHLPADPIFS
B2: the normalised SPOT signal, Boehringer light units (BLU); mean over the file's lines of this peptide in experiment [1] amounted to 835; in experiment [2], 90.5; in experiment [3], 67.8; in experiment [4], 21; in experiment [5] it was 187; in experiment [6] it was 67.2. For the same molecule, the normalised SPOT signal, Boehringer light units (BLU); mean over the file's lines of this peptide in experiment [7] was determined as 278.

B3: YFR013W 78-91 (peptide)
chain: NKPKRKRPAPPKKK
As to B3, the normalised SPOT signal, Boehringer light units (BLU); mean over the file's lines of this peptide in experiment [1] came to 568; in experiment [2], 81.6; in experiment [3] it was 83.6; in experiment [4], 22.9; in experiment [5], 635; in experiment [6] it was 88.2. Besides, the normalised SPOT signal, Boehringer light units (BLU); mean over the file's lines of this peptide in experiment [7] is 872.

B4: YHL035C 1327-1340 (peptide)
chain: NLSLRYAPNLPPVI
B4: the normalised SPOT signal, Boehringer light units (BLU); mean over the file's lines of this peptide turned out to be 154 in experiment [1]; 135 in experiment [2]; 216 in experiment [3]; 25.4 in experiment [4]; 360 in experiment [5]; 40.5 in experiment [6]. This molecule also returned a normalised SPOT signal, Boehringer light units (BLU); mean over the file's lines of this peptide in experiment [7] of 779.

B5: YEL019C 6-19 (peptide)
chain: NPIPKSVPLHPKSG
For the molecule B5, the normalised SPOT signal, Boehringer light units (BLU); mean over the file's lines of this peptide in experiment [1] turned out to be 88.1; in experiment [2], 467; in experiment [3] it was 7.3; in experiment [4] it was 7.9; in experiment [5], 225; in experiment [6], 28.7. Moreover, the normalised SPOT signal, Boehringer light units (BLU); mean over the file's lines of this peptide in experiment [7] amounted to 364.

B6: YDR543C 77-90 (peptide)
chain: NITEKSPPKSPKHK
As for B6, the normalised SPOT signal, Boehringer light units (BLU); mean over the file's lines of this peptide worked out at 187 in experiment [1]; 110 in experiment [2]; 124 in experiment [3]; 18.7 in experiment [4]; 3420 in experiment [5]; 74.8 in experiment [6]. In addition, in experiment [7], the normalised SPOT signal, Boehringer light units (BLU); mean over the file's lines of this peptide was 292.

B7: YOL019W 467-480 (peptide)
chain: NLYQRTTPAGPDPS
For B7, the normalised SPOT signal, Boehringer light units (BLU); mean over the file's lines of this peptide was 389 in experiment [1]; 1140 in experiment [2]; 344 in experiment [3]; 126 in experiment [4]; 585 in experiment [5]; 60.6 in experiment [6]. The molecule also gave a normalised SPOT signal, Boehringer light units (BLU); mean over the file's lines of this peptide in experiment [7] of 114.

B8: 532-545 Hypothetical ORF (peptide)
chain: NHIPPFPLRFSFAQ
On to B8, for which the normalised SPOT signal, Boehringer light units (BLU); mean over the file's lines of this peptide in experiment [6] is 184.

B9: YBR136W 500-513 (peptide)
chain: NPFVRINPNRPEAA
Consider B9, for which the normalised SPOT signal, Boehringer light units (BLU); mean over the file's lines of this peptide in experiment [1] was 344; in experiment [2], 73.5; in experiment [3] it was 56.6; in experiment [4], 47.2; in experiment [5], 444; in experiment [6], 35.9. The molecule further registered a normalised SPOT signal, Boehringer light units (BLU); mean over the file's lines of this peptide in experiment [7] of 276.

B10: 1037-1050 DNA replication helicase (peptide)
chain: NDDPVIPYKLSKDT
Molecule B10 gave a normalised SPOT signal, Boehringer light units (BLU); mean over the file's lines of this peptide in experiment [6] of 201.

B11: 147-160 Hypothetical ORF (peptide)
chain: MVTPSKPPKKSVGF
Take B11: the normalised SPOT signal, Boehringer light units (BLU); mean over the file's lines of this peptide in experiment [6] amounted to 749.

B12: YPR171W 465-478 (peptide)
chain: NNLKKRPPTAPQRK
For B12, the normalised SPOT signal, Boehringer light units (BLU); mean over the file's lines of this peptide in experiment [1] amounted to 6960; in experiment [2], 4310; in experiment [3], 6090; in experiment [4], 152; in experiment [5], 2270; in experiment [6], 64.6. The same molecule showed a normalised SPOT signal, Boehringer light units (BLU); mean over the file's lines of this peptide in experiment [7] of 419.

B13: 11-24 Hypothetical ORF (peptide)
chain: MVRPAPPRRADPEG
Molecule B13 gave a normalised SPOT signal, Boehringer light units (BLU); mean over the file's lines of this peptide in experiment [6] of 608.

B14: 165-178 " Radiation repair protein, putative DNA helicase" (peptide)
chain: NAPPYVPQRSKQPD
B14 registered a normalised SPOT signal, Boehringer light units (BLU); mean over the file's lines of this peptide in experiment [6] of 143.

B15: 38-51 Mitochondrial ribosomal protein MRPL25 (YmL25) (peptide)
chain: NANPFLPNKHPVTQ
B15 had a normalised SPOT signal, Boehringer light units (BLU); mean over the file's lines of this peptide in experiment [6] of 210.

B16: 66-79 ubiquitin-conjugating enzyme (peptide)
chain: NEYPSKPPKVKFPA
For B16, the normalised SPOT signal, Boehringer light units (BLU); mean over the file's lines of this peptide in experiment [6] worked out at 330.

B17: YLR189C 152-165 (peptide)
chain: NLKTKSHPEVPRLD
With B17, the normalised SPOT signal, Boehringer light units (BLU); mean over the file's lines of this peptide was determined as 327 in experiment [1]; 2740 in experiment [2]; 1080 in experiment [3]; 142 in experiment [4]; 426 in experiment [5]; 104 in experiment [6]. Further, in experiment [7], the normalised SPOT signal, Boehringer light units (BLU); mean over the file's lines of this peptide is 363.

B18: YJL133W 8-21 (peptide)
chain: NNSTRPIPAIPMDL
Turning to B18, the normalised SPOT signal, Boehringer light units (BLU); mean over the file's lines of this peptide was 39600 in experiment [1]; 44100 in experiment [2]; 58900 in experiment [3]; 20.8 in experiment [4]; 203 in experiment [5]; 1770 in experiment [6]. Moreover, the normalised SPOT signal, Boehringer light units (BLU); mean over the file's lines of this peptide in experiment [7] was 247.

B19: 764-777 mitohcondrial RNA polymerase (peptide)
chain: MVLPPAPPKNSDPS
Molecule B19 displayed a normalised SPOT signal, Boehringer light units (BLU); mean over the file's lines of this peptide in experiment [6] of 141.
